Results taken from PMC9959916, “A Highly Conserved Region in BRCA2 Suppresses the RAD51-Interaction Activity of BRC Repeats” (Veterinary Sciences, 2023).
Substitutions are numbered along the chain they refer to.

B1: FLAG-HA-NLS-fused cBRC1-HCR-BRC2 (canine BRCA2 993–1248 aa) [canine (Canis lupus familiaris)] / endogenous RAD51 (HeLa cells) [human (endogenous in HeLa)] (parent complex)
chain 1: PISNHSFENGFKTASNKEIKLSENNIRKSKMLFKDIEEHYPTNLACLEIVNTSSLESQKKPSKSHALDPQSINIISGFVQNSTYVSDSESGHTAPPTLSLKQDFDSNRNLTPSQKAEITELSTILEESGSQFEFTQFRKPSHIIQKNPFEMPENQLTILNSTSKEWKDDDLHLTTNAPSISQVDSKKSEGIIGGKQKFACLSRTSCNRSASGYSTDKNEVEFRGFYSARGTKLNVGSEALQKAKKLFSDLENINEE
chain 2: MAMQMQLEANADTSVEEESFGPQPISRLEQCGINANDVKKLEEAGFHTVEAVAYAPKKELINIKGISEAKADKILAEAAKLVPMGFTTATEFHQRRSEIIQITTGSKELDKLLQGGIETGSITEMFGEFRTGKTQICHTLAVTCQLPIDRGGGEGKAMYIDTEGTFRPERLLAVAERYGLSGSDVLDNVAYARAFNTDHQTQLLYQASAMMVESRYALLIVDSATALYRTDYSGRGELSARQMHLARFLRMLLRLADEFGVAVVITNQVVAQVDGAAMFAADPKKPIGGNIIAHASTTRLYLRKGRGETRICKIYDSPCLPEAEAMFAINADGVGDAKD
B2: Gal4 DNA-binding domain-fused cBRC1-HCR-BRC2 (canine BRCA2 993–1248 aa) [canine (Canis lupus familiaris)] / VP16-fused canine RAD51 [canine] (parent complex)
chain 1: B1 chain 1
chain 2: B1 chain 2 with N62S, A76T, A194G

Variants of: B1
Experiment: co-immunoprecipitation (anti-FLAG IP, Western blot quantification); lysates from HeLa cells stably expressing the FLAG-HA-NLS-fused peptide; parent: 1

**Q.** With chain 1 I118M as the variant, how does the ratio to parent read?
**A.** The ratio to parent was 0.92.

**Q.** Which ratio to parent does the source give for chain 1 T123P here?
**A.** The ratio to parent was 0.57.

**Q.** How did the ratio to parent turn out when chain 1 S122P was run?
**A.** The ratio to parent was 0.52.

Variants of: B2
Experiment: mammalian two-hybrid assay; n = 4; parent: 3.1; read off a plot

**Q.** How did the response turn out when chain 1 I118M was run?
**A.** The response was about 3.3 Firefly/Renilla.

**Q.** How did the response turn out when chain 1 T123P was run?
**A.** The response was about 2 Firefly/Renilla.

**Q.** Which response does the source give for chain 1 S122P here?
**A.** The response was about 2.6 Firefly/Renilla.
